Biological target: CLASPIN (UniProt Q9HAW4)
Test: anti-myc co-immunoprecipitation
Details: reference: wild-type RAD9-mH; sites T313

RAD9 (from UniProt Q99638) RAD9-T313A-mH
binding against the reference: stronger

Source: PMC5736350
